# Source: patent US20240262879A1 (Boehringer Ingelheim, published 2024)
# T1: Interleukin-12 (IL-12) (human, UniProt P29459 23-219; P29460 23-328)
# T1 sequence 1: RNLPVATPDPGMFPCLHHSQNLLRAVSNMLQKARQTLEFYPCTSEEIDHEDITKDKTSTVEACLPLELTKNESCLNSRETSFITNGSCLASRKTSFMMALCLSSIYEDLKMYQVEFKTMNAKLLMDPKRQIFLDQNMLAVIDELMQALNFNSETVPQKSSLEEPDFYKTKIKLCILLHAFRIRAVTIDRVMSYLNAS
# T1 sequence 2: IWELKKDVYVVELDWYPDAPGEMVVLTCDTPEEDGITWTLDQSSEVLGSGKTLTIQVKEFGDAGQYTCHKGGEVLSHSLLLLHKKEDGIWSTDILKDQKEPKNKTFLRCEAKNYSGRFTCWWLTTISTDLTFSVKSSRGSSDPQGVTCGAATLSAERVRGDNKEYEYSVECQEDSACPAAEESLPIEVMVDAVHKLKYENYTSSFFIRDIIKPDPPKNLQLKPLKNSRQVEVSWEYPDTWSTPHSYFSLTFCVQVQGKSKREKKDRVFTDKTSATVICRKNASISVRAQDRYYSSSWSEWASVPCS
# Experiments:
# rat collagen I = target: T2, rat collagen I (rat, UniProt P02454 152-1207; P02466 86-1125); test: ELISA on plates coated with rat collagen I (Corning), detection with anti-human Fc
# T2 construct: Bought; also called Rat collagen (Corning)
# T2 sequence (P02454 152-1207, chain 1 of 2): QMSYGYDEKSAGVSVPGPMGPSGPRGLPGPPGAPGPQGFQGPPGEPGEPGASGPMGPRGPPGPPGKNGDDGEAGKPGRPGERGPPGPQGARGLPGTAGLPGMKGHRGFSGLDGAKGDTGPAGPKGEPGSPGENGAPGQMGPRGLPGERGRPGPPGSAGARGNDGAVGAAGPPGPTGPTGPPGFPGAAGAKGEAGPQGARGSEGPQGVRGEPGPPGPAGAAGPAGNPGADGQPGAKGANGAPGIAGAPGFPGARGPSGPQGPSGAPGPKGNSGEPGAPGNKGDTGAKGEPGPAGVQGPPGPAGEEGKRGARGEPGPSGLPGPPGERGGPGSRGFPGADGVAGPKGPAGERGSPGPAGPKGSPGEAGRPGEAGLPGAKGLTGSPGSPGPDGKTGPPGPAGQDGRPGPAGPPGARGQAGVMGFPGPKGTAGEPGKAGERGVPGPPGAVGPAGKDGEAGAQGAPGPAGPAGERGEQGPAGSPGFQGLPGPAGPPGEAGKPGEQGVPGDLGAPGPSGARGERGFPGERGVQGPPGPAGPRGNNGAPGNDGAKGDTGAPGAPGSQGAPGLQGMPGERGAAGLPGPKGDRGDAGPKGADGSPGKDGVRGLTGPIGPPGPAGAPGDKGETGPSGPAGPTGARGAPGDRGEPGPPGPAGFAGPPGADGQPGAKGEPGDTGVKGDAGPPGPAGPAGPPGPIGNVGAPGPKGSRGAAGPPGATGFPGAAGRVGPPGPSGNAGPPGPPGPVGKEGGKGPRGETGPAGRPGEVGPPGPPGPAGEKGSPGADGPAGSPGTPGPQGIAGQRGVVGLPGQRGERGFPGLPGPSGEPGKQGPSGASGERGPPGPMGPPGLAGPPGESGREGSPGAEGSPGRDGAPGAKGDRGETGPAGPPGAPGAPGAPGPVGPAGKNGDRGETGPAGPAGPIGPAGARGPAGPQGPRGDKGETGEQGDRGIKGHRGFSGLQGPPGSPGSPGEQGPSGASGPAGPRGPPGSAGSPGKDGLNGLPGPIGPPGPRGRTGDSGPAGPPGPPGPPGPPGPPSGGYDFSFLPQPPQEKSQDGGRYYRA
# T2 sequence (P02466 86-1125, chain 2 of 2): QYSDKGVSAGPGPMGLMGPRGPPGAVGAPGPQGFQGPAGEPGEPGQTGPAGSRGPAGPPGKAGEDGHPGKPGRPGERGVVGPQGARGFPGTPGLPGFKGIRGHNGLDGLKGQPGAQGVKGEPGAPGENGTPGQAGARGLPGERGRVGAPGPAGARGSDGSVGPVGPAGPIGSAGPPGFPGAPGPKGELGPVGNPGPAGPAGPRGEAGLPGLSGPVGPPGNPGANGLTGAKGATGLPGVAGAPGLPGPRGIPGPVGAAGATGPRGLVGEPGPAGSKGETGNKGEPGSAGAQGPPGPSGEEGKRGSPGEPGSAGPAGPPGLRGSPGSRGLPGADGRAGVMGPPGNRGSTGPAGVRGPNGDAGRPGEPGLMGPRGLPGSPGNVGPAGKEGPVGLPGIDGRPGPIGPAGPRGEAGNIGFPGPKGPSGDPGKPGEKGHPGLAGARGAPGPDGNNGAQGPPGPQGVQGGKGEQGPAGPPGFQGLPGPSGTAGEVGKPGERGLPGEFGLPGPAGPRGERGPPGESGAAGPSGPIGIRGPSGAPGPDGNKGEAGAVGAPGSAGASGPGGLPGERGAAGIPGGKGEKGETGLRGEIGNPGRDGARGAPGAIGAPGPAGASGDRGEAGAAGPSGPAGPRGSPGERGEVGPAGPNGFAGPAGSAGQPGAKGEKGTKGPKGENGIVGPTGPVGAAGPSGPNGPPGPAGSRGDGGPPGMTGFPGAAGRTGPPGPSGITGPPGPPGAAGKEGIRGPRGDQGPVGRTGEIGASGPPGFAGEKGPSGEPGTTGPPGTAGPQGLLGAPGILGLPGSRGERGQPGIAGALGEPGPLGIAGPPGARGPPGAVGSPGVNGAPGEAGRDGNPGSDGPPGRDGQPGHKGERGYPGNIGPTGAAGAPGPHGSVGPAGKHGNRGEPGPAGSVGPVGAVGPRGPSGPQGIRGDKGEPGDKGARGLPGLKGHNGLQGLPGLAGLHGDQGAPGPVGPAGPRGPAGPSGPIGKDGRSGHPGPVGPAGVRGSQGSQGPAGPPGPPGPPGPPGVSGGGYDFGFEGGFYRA
# Procedure: (§1) Collagen binding properties were further evaluated in ELISA assay. Chimeric IL-12 Fc fusion protein BI-065 or chimeric IL-12 Fc fusion protein containing collagen I TME linker BI-057 were added to collagen I-coated plates. To this end, plates were coated either with rat collagen I (FIG. 25A) or with human skin collagen I (FIG. 25B).
# (§2) Briefly, high binding microplates (greiner) are coated over night at 4° C. with rat collagen (Corning) or human collagen (Millipore/R&D) diluted in coating buffer (Invitrogen) with a concentration of 0.005 mg/mL. IL-12 Fc fusion proteins are diluted in PBS+1% BSA and added to collagen precoated plates for 2 hours. The plates are blocked with 1% BSA before addition of proteins to minimize unspecific binding. Next, plates are washed 3× followed by incubation with biotinylated anti-human Fc antibody (Invitrogen). After additional washing step, Streptavidin-HRP are added to the plates. Substrate are added to plates after a washing step and plates are read in ELISA reader (Tecan).
# [1] = target: collagen present in fibrotic rat livers (rat); test: 24 h incubation with fibrotic rat liver slices, recovered protein by MSD U-PLEX
# Procedure: (§3) FIGS. 26A-26B: Precision cut liver slices were prepared from fibrotic rat livers. IL-12 Fc fusion proteins (BI-057 or BI-065; in amounts indicated in figure legends) were added to the slices and incubated for 24 hours (FIG. 26A) or 2 hours followed by 22 h recovery period (FIG. 26B). After 2 h incubation, fusion proteins were thoroughly washed and incubated for another 22 h in medium before harvest. After 24 h, slices were collected, lysed and homogenized. The amount of IL-12 Fc fusion proteins recovered from the slices was determined with the MSD U-PLEX Biomarker Assay using IL-12 Fc fusion proteins as standards.
# (§4) Briefly, tissue cores are cut from the fibrotic rat liver using a 5 mm cylindrical motorized tissue coring press (Alabama R&D, MD5000), and 300 μm thick tissue slices are cut using a tissue slicer (Alabama R&D, MD6000). All tissue slices are cultured with a floating culture system (60 rpm) in 12 well plates (Nunc) in a humidified incubator, 95% O₂/5% CO₂, 37° C. in 1.3 mL supplemented William's Medium E (Life Technologies).
# human collagen type 1 = target: T3, human collagen type 1 (human, UniProt P02452 162-1218; P08123 80-1119, limits assumed); test: ELISA on plates coated with human collagen I (Millipore/R&D), detection with anti-human Fc
# T3 construct: Bought or cell-made collagen; also called human collagen I; human collagen (Millipore/R&D)
# T3 sequence (P02452 162-1218 limits assumed, chain 1 of 2): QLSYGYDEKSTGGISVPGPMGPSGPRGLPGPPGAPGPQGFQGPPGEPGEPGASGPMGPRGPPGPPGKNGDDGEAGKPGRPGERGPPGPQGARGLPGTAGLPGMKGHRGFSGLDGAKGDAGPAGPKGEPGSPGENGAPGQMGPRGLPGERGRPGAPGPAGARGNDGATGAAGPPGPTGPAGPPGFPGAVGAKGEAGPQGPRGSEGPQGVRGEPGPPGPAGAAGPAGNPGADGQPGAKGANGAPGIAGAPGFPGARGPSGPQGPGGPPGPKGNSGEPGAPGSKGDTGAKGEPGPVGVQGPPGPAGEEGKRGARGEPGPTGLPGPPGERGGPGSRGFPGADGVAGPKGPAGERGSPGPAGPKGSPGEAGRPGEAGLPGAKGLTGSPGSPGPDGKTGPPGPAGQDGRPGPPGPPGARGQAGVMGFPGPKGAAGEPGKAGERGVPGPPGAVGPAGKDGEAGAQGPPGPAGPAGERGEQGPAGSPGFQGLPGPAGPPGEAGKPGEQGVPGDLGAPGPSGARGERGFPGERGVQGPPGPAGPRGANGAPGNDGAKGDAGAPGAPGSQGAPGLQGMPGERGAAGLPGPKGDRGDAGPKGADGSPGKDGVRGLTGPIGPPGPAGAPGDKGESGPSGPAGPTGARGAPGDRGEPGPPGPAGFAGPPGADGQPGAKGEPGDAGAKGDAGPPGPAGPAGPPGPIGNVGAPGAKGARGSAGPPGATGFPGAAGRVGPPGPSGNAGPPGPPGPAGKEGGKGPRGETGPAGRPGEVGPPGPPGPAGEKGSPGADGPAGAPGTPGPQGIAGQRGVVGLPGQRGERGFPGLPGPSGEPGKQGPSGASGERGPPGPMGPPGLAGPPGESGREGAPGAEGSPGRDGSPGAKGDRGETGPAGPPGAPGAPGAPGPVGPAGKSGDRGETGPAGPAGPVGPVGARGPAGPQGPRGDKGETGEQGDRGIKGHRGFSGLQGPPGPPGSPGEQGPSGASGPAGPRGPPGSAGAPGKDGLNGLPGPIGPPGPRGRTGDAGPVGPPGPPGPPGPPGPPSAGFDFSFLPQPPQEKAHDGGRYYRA
# T3 sequence (P08123 80-1119 limits assumed, chain 2 of 2): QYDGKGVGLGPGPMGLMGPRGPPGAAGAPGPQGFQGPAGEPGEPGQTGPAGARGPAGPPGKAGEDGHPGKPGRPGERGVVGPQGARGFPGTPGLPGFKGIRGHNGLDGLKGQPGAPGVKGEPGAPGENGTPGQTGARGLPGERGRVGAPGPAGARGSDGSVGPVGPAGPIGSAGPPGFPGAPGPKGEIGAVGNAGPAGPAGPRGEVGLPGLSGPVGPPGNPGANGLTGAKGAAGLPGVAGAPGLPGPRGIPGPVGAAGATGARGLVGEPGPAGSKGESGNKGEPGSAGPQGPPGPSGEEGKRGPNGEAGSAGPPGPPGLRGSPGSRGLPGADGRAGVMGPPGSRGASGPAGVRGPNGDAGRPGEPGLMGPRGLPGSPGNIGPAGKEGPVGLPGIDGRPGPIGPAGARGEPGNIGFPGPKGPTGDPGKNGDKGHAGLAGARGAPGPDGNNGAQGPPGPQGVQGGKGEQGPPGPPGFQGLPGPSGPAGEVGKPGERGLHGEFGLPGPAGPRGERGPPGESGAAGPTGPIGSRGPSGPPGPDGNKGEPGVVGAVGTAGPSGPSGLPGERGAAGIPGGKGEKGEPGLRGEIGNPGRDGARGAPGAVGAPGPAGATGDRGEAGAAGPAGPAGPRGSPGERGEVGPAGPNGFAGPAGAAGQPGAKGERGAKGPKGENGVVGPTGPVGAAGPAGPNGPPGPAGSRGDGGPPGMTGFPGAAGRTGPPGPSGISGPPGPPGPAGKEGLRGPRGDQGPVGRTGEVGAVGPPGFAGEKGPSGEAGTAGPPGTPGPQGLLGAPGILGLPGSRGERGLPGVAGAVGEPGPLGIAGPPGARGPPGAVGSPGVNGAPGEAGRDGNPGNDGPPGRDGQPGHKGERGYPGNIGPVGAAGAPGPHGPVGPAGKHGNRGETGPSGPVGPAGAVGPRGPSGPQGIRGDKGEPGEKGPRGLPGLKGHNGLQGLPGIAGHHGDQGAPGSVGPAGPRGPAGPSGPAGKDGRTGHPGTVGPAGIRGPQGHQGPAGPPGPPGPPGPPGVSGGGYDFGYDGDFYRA
# Procedure: as §1, §2
# [2] = target: collagen present in fibrotic rat livers (rat); test: 2 h incubation, wash and 22 h culture of fibrotic rat liver slices, recovered protein by MSD U-PLEX
# Procedure: as §3, §4
# Interleukin-12 (IL-12) [3] = target: T1, Interleukin-12 (IL-12); test: affinity for IL-12; method not stated
# Interleukin-12 (IL-12) [4] = target: T1, Interleukin-12 (IL-12); test: cell-based or functional assay
EC50 (rat collagen I) [nM],fold decrease in fold recovery from liver slices against BI-065 [1] [fold],EC50 (human collagen type 1) [nM],fold recovery from liver slices against BI-065 [2] [fold],Kd (Interleukin-12 (IL-12) [3]) [nM],IC50 (Interleukin-12 (IL-12) [4]) [nM],Binder
26,> 10,75,10,,,"BI-057 (Fc fusion, Knob-into-hole heterodimer; human p40, mouse p35; also called chimeric IL-12 Fc fusion protein containing collagen I TME linker) chain 1: EPKSSDKTHTCPPCPAPEAAGGPSVFLFPPKPKDTLMISRTPEVTCVVVDVSHEDPEVKFNWYVDGVEVHNAKTKPREEQYNSTYRVVSVLTVLHQDWLNGKEYKCKVSNKALPAPIEKTISKAKGQPREPQVYTLPPSREEMTKNQVSLWCLVKGFYPSDIAVEWESNGQPENNYKTTPPVLDSDGSFFLYSKLTVDKSRWQQGNVFSCSVMHEALHNHYTQKSLSLSPGGGGGSGGGGGPLGVRGGGGGSIWELKKDVYVVELDWYPDAPGEMVVLTCDTPEEDGITWTLDQSSEVLGSGKTLTIQVKEFGDAGQYTCHKGGEVLSHSLLLLHKKEDGIWSTDILKDQKEPKNKTFLRCEAKNYSGRFTCWWLTTISTDLTFSVKSSRGSSDPQGVTCGAATLSAERVRGDNKEYEYSVECQEDSACPAAEESLPIEVMVDAVHKLKYENYTSSFFIRDIIKPDPPKNLQLKPLKNSRQVEVSWEYPDTWSTPHSYFSLTFCVQVQGKSKREKKDRVFTDKTSATVICRKNASISVRAQDRYYSSSWSEWASVPCSGGGGSGGGGSGGGGSRVIPVSGPARCLSQSRNLLKTTDDMVKTAREKLKHYSCTAEDIDHEDITRDQTSTLKTCLPLELHKNESCLATRETSSTTRGSCLPPQKTSLMMTLCLGSIYEDLKMYQTEFQAINAALQNHNHQQIILDKGMLVAIDELMQSLNHNGETLRQKPPVGEADPYRVKMKLCILLHAFSTRVVTINRVMGYLSSAGSGGLRELHLDNN chain 2: EPKSSDKTHTCPPCPAPEAAGGPSVFLFPPKPKDTLMISRTPEVTCVVVDVSHEDPEVKFNWYVDGVEVHNAKTKPREEQYNSTYRVVSVLTVLHQDWLNGKEYKCKVSNKALPAPIEKTISKAKGQPREPQVYTLPPSREEMTKNQVSLSCAVKGFYPSDIAVEWESNGQPENNYKTTPPVLDSDGSFFLVSKLTVDKSRWQQGNVFSCSVMHEALHNRFTQKSLSLSPGGGGGSGGGGSGGGGSGGGGSGGGGSEVQLVESGGGLVQPGGSLRLSCAASGRTFETIAMGWFRQAPGKGLEFVAVIRGSGVATYYAESVKGRFTISKDSSKNTVYLQMNSLRAEDTAVYYCAATTNRFKNTDYTTYDYWGQGTQVTVSSA"
,,,,12,5.7,"BI-049 (VHH, Variant of BI-039, mask of BI-054; also called Mix 15) VHH: EVQLVESGGGLVQPGGSLRLSCAASGRTFETIAMGWFRQAPGKGLEFVAVIRGSGVATYYAESVKGRFTISKDSSKNTVYLQMNSLRAEDTAVYYCAATTNRFKNREYTTYDYWGQGTQVTVSS"
,,,,3.5,0.61,BI-039 (VHH) VHH: QVQLVESGGGLVQAGGSLRLSCAASGRTFETIAMGWFRQVPGKEREFVAVIRGSGVATYYPDSVKGRFTISKDSAKNTVYLQMNNLKPEDTAVYYCAATTNRFKNTDYTTYDYWGQGTQVTVSS
,,,,3,0.36,"BI-117 (VHH, also called 61-Gft-106_D62E) VHH: EVQLVESGGGLVQPGGSLRLSCAASGRTFETIAMGWFRQAPGKEREFVAVIRGSGVATYYPESVKGRFTISKDSSKNTVYLQMNSLRAEDTAVYYCAATTNRFKNTDYTTYDYWGQGTQVTVSS"
,,,,30,10,BI-123 (VHH) VHH: EVQLVESGGGLVQPGGSLRLSCAASGRTFETIAMGWFRQAPGKEREFVAVIRGSGVATSYPESVKGRFTISKDSSKNTVYLQMNSLRAEDTAVYYCAATTNRFKNTDYTTYDYWGQGTQVTVSS
,,,,8.5,2.4,BI-119 (VHH) VHH: EVQLVESGGGLVQPGGSLRLSCAASGRTFETIAMGWFRQAPGKEREFVAVIRGSGVATYYPESVKGRFTISKDSSKNTVYLQMNSLRAEDTAVYYCAATTNRFKNRDYTTYDYWGQGTQVTVSS
,,,,3.4,0.89,"BI-063 (VHH, Variant of BI-039; also called 61-Gft-106; BI-063 VHH) VHH: EVQLVESGGGLVQPGGSLRLSCAASGRTFETIAMGWFRQAPGKEREFVAVIRGSGVATYYPDSVKGRFTISKDSSKNTVYLQMNSLRAEDTAVYYCAATTNRFKNTDYTTYDYWGQGTQVTVSS"
,,,,3.7,0.44,"BI-048 (VHH, Humanised variant of BI-039, the selected masking domain; also called Mix 13) VHH: EVQLVESGGGLVQPGGSLRLSCAASGRTFETIAMGWFRQAPGKGLEFVAVIRGSGVATYYAESVKGRFTISKDSSKNTVYLQMNSLRAEDTAVYYCAATTNRFKNTDYTTYDYWGQGTQVTVSS"
,,,,4.1,2.5,BI-120 (VHH) VHH: EVQLVESGGGLVQPGGSLRLSCAASGRTFETIAMGWFRQAPGKEREFVAVIRGSGVATYYPESVKGRFTISKDSSKNTVYLQMNSLRAEDTAVYYCAATTNRFKNTEYTTYDYWGQGTQVTVSS
